What was measured:
ALPG-AF647 (human) = ALPG-AF647 (human) (UniProt P10696); experiment: flow cytometry, lentivirally transduced primary T cells without PrimeR, stained with ALPG-AF647 (PrimeR axis) and MSLN-Bio / streptavidin-PE (CAR axis)
MSLN-Bio (human) = MSLN-Bio (human) (UniProt Q13421); experiment: flow cytometry, lentivirally transduced primary T cells, stained with ALPG-AF647 (PrimeR axis) and MSLN-Bio / streptavidin-PE (CAR axis)
Sequence of MSLN-Bio (human) (Q13421 other isoform, or with tags, fused parts or gaps limits assumed): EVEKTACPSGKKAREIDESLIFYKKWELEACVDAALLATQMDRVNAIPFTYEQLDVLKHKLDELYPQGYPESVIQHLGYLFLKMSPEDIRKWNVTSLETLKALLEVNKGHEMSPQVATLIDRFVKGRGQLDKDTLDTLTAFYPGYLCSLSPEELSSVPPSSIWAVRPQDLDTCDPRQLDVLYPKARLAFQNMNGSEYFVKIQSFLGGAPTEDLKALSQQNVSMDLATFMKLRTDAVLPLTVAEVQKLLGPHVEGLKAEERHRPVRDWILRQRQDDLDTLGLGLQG

Sequence of ALPG-AF647 (human) (P10696 20-503 limits assumed): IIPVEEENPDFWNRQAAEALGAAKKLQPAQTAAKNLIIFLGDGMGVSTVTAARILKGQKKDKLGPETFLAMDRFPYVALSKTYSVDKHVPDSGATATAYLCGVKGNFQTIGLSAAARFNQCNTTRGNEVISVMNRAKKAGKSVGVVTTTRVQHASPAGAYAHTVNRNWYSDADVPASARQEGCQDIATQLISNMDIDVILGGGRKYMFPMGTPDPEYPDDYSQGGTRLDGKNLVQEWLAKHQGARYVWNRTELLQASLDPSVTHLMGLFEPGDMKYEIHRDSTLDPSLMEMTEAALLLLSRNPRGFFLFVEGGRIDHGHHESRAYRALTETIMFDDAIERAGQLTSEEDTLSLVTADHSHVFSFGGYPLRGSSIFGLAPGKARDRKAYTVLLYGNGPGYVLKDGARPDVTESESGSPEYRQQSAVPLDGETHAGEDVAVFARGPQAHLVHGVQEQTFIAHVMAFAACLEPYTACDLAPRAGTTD

SS1 CAR showed a % of cells PrimeR+ CAR+ (upper right quadrant) (ALPG-AF647 (human)) of 0.59%, a % of cells PrimeR+ CAR- (lower right quadrant) (ALPG-AF647 (human)) of 0.079% and a % of cells PrimeR+ CAR+ (upper right quadrant) (MSLN-Bio (human)) of 0.59%. It also gave a % of cells PrimeR- CAR+ (upper left quadrant) (MSLN-Bio (human)) of 59.2%.
